Results taken from publication PMC3008968.

B1: fetuin (fetal calf serum) (natural protein)
chain: IPLDPVAGYKEPACDDPDTEQAALAAVDYINKHLPRGYKHTLNQIDSVKVWPRRPTGEVYDIEIDTLETTCHVLDPTPLANCSVRQQTQHAVEGDCDIHVLKQDGQFSVLFTKCDSSPDSAEDVRKLCPDCPLLAPLNDSRVVHAVEVALATFNAESNGSYLQLVEISRAQFVPLPVSVSVEFAVAATDCIAKEVVDPTKCNLLAEKQYGFCKGSVIQKALGGEDVRVTCTLFQTQPVIPQPQPDGAEAEAPSAVPDAAGPTPSAAGPPVASVVVGPSVVAVPLPLHRAHYDLRHTFSGVASVESSSGEAFHVGKTPIVGQPSIPGGPVRLCPGRIRYFKI
B2: Asialofetuin (natural protein)
chain: B1 chain
modifications: asialo form (asialofetuin)

Tests used:
[1] = target: Cephalosporium lectin (Cephalosporium (isolated from the corneal smears of a keratitis patient)); experiment: SEC; gel filtration on a Superdex G-75 column in PBS, calibrated with standard proteins; 57 kDa compared with the 14 kDa subunit mass by SDS-PAGE
[2] = target: Cephalosporium lectin (Cephalosporium (isolated from the corneal smears of a keratitis patient))

Molecule | stoichiometry N [1] | minimum concentration required to inhibit hemagglutination of trypsinized human erythrocytes by CSL (hapten inhibition, MIC) [2]
Cephalosporium lectin (natural protein) | 4 | 
Mucin (porcine stomach, type III) (natural protein) |  | 0.785 μg/50 μl
B1 |  | 6.25 μg/50 μl
B2 |  | 12.5 μg/50 μl
